The text below walks through data of a protein production outcome set (Wang et al. 2014).

This series in a line: label from the status in PepcDB records.
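Also: failed if final PepcDB status was selected cloned or expressed and not failed if soluble or beyond.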

Turning to “MKRTKKAFVLVLSLSMLASISPQTVLASGGNTDRYEEVHGTQAIVKDAEVHVYTTKNGGTVQLTGSNGIETTFTQGIGYREYKATPADGWRWKGWTYEQLYQGEDLGNRTDYGWGRRYSFSNDGSDWKSPYDGIGQTISVNRLLTTGETVGNKITYNLYADFNPTINATADTGGTIEDSGITEVEYGTNKQYTVTADTGKDIASVTVDGNSVLAETKKDSFTYTFENVTEPHTIHATFTDEIHTVSYEFVSGTAGEALPEEVSNLCPSSSTYTYGTEVTPTQPTSTSVKVSDGVWTFKGYDKENQTVTSDVKFTGTWTFAKNAVTINHIPTITAGDKTITVGDSFDPKKDVTASDKEDGSLTDRIEVINNTVNTSKVGTYTVTYKVTDKDGASVTKSITVTVKEKDKEEQTTVPTKPDNGNSTSTDTKKDASKTGQTVKTGDTSNVLLWSTIAILSLAGVVTVLFIKRRKSHS”, the protein production entry is given as “failed”. As to “MKRWTTLLIVICMLGITIPAMGAMSISKMRQNTRFLTDRMAYELKLTPRQYNDVYEVNYDFINNVRYLMDDVVRGYDYALERYYDFLDVRNDDLRWILSSAQYRRFMRAEHFYRPIYAHENKWHFRIYLVYNNVNFFYYGKPHHYASYCGGHYRTHFNNVSYYKTHYRDHYRHDVYDGHYRIRHDRMTYDMHRRRDFNIAVRPPQKEHHRPATPPQTRPNRPQIHPDRPSGDHRRPSVPQARPDRPKKDQNNKHDGRPSRRGQNSQVDKDRHENRRITPSGRDVRRGNGKKEKDSDRSGGSNKSNSKERTAVRMRTV”, the protein production result is reported as “failed”. With “MKSADGLLHVAFTPSKATGKVLASELPEKVGKRSSVLYPASLKAGNDIGVPVQSVDTVLLQQALSAPVLSVASPSAVRAWLHLIQNEEQWSNYVACIGETTASAARRLGLKNVYYPEKPGLEGWVESIMEALGAHADSSNPSSRN”, the protein production entry is listed as “failed”.

“MKSAELKYLDFEDFTKLIALAKEKINPIYSSSFMIYIAAMTGMRFSELLGLTWDNVDFEKGQIYVKRTWDIYKNNFAPTKNDQSVRFLAIDSSTMQVMINYKEQQEKLLKRLEIEPEHPFVFYNIKNGLITNNSLNKQLRNMCKKLGFKKIITCHGLRHTHASTMLYKGINILYVSKRLGHSSLNVTMSVYSHILKLEHHHHHH”: the protein production entry was “failed”. On to “MKSFDGHNDLLARLWLSEHPDPVGMFLKGQLPGHLDFARCQQAQFAGGLFAIFVPPFDYVKNNHPYKLRKSAQAGFDTQDIHHIVFTQLDYIKQIASRSDRRIQICLSVEDIQFCLQQDIMAVVIHLEGAEVLDSEFGVLEQLHARGLRSIGPLWNLPNQFGHGLQASFPHSPDTGLGLTDQGKALIQLCSEKRIMIDVSHMNEKAFWDTAKISELPLIATHSNVHQLCPQPRNLTDAQLEAIQASQGCVGVNFDTAFLRPDGQRNAATSLDLILEHIEYLMHKLGEDQVAFGSDFDGGFISDHLKDVTGLIHLQQAFERRGYSQALQEKLCHQNWLSALQRVWHPAC”, for which the protein production result is given as “failed”. The result for “MKSHAEVVKTRHHEYSLVFPVIALVVLYIWGNSQDFIAILGINAVALAGILFSAFSVVRHADVLAHRLGEPYGSLILSLSVVILEVSLISALMATGDAGPDLMRDTLYSIIVIVTGGLVGFALLLGGRKFATQYVNLSGIKQYLMAIFPLAVIVLVFPSALPDGNFSVTQSLIVAAISAAMYGVFLLIQTRTHQSLFVYEHEDEGDGDDPHHGKPSAHSSLWHTGWLLVHLIAVIAVTKTNSMPLETLLTEMNAPTQFTGFLVALLILSPEGLGAIRAVLKNQVQRAMNLFFGSVLATISLTVPTVTIIAMITGRTLNFGLDMPHIVVMLSVLVLCHITFSTGRTNVLSGSAHLALFAAYLITITL” reads “failed”; that for “MKSHQLLKAPFQHGFLFSRPLVMYCFKTCHDSAWKHYIRFLKYRHEKLYEEALSEIDNAIKVCNSIAFRYFLLSEKLTVLGYMGKHEEGIKLYSHLRGRMRNVSPNLRSIFIGNLLNYCSMYLHNAFECLGRIKPEAHHLEKSSYAFILIGKARYMARTGNVKEAIESYEKALKILQEIPHPSGIIACLNDMAWYTKEKDPEKAKDMAEEALYWNGYFFDAPRFYALDTLFEVQRTTSDPAIVETARLIEIASEGLKDSASDLLKKDQRLFLRLNNSLYRNTKSLQRFLRRNTTSIKHLSEITGVARNRLSDILNGKTQKIRGETLRKIAKAFEKSNILSFPPPLLSEWVKLRIEENFSAALREIKTKRLEERQILFLSTYTALIDRKFLSRKERLKKAYTLLEDIESFADFMAKDHRTMEFVVSMVKAHPFVEGRKEAVKRALARMKRKRLERFVLRYIEMKESDRKLLDRFLRNYGRYDGVRFGIRLKGPEVVREFAKKYSLKVQPLFAAFWCEEDGRVRRRLERVLKHMVLN”, “failed”; that for “MKSKWIFIQWFKYNNIRMKDESTNKFGSLNLAVLVLSVYVLGALIVDTTIKLPEETSRLLNYIDLAICIFFFVEFCIRLYHADSKMKFMRWGWIDLVSSIPMINFLRFGRVFRLIRLFRILRAFRTTKEFVTYVFRIKAQGAFTSATILAILLIIFSSIAILQVENASTSNITTAEDAIWWSYVTITTVGYGDKYPVTTEGRIIAMFLMTAGVGLFGTFTAYIASLFVSDNKKEETETKE”, “failed”. With “MKSLYRSRMANHSKHGRPFTLSLPNRSQCVKIVATFAAVGLLATGGIISRSFYTSSTQAEPTTRVTAYSATDAEASRGNAREALGGDTAYVTVKINGKSRVVPGTNFTNVKSVLEAGNITLEPEDTVSPSLTTKVDEKTVITVSRAGASVEVSDSSIAFNVVKKETSSLPKGQEKVETEGEEGVMESTNLVTRSGDTVISSNMISSYVKKAPVDKVVLVGTGSTSTSSSSSSSSSTASVGTTVPAGEMQQWAHDYLISNGYTEADFTATVYIISHESGWSVSATNPSSGAYGLPQALPGSKMVSAGADWATNYQTQLKWFWGYCASRYGSIQGAYSYWLAHKCY”, the protein production entry is on record as “failed”. To “MKSQNPSKRNLPGVIIAYFLIYVVWGSTYFFIGVALKDFSPFLLGALRFTTAGLILLGICYLRGEQIFKKSLVKRSAVSGIVLLFVDMAVVMLAQRYLTSSLVAIIASSTALWILLLDVPMWRTNFRNPLTIAGGGIGFGGVVMLYAEQLNAEWLHPQSERGILLLVFGCISWALGTLYAKYRSSREEEVNAFAGSAWQMLFASVMFWICAVVNGDVREADLSTVSVTSWFSLLYLISFGSLLAYSAYVWLLKVRPAAEVGTHAYVNPFIAVLLGVSFGNEQVTFVQLSGLLVILLGVMLISRKRNKMKSTAISR” belongs “failed”; to “MKSQWECFLQNLGVWEGSFSNFSPEGTLLNDTSSRLCLEGLNNNQTVRLTLSRSGKDDVIREFRSVGGGLLFFENGSFSEGLIQLGPFSEFGGELAFVHENRRLRLVQLFDRNGHLNGLTLIREHLAGTPVAERPLLQINDLLGEWRGQAVTIYRDLRPPDIYSTTLKIQLDDAGRLMQSTSFGERTITSTATIKGSIVLFDQDPEKQVQVLLLPDGASATSPLKVQLRQPLFLEAGWLIQSDLRQRMIRSYNDKGEWVSLTLVTEERV”, “not failed”. Turning to “MKSRTSELAAGIFVIIFGVALFFLAMKVSGLAGTNLSDPYTMTAQFDNVNGLKPRAKVTMSGVTIGRVDAITLDPVTRLATVTFDLDGKLTTFNAKQLKTVEQNALEELHYSSDYKSAEPAKQKVMEQQLIDNMKSITSIDEDAYIMVSTNGLLGEKYLKIVPGGGLNYLKRGDAITNTQGTMDLEDLISKFITGGAGKSSDNSTGTAAQSSSSEDKEPSFTELEHHHHHH”, the protein production result is listed as “failed”. To “MKSSTMTSDYYKQTQIDQTLRLREVLKTLPPFAKDYFRAMEPKSSAKTRINYAYDIRVFFHFLLENNPIYKNYTMDQFRVQDLERIEPVDIEEYMEYLKVYKREDNEMITNGERGLKRKMSALRSFYSYYFKHQYIATNPTLLEHHHHHH” belongs “failed”. As for “MKSSVVSAWDMLWRSHREAKRLLLFAMPVRAGKDAGLKINSEQTMKEEKPPSYKTPQKIGLLLGPALFFAVLLFFFPEGLSYEGRMVLATTLWVAVWWITEAVPIPAASLLPIVLLPLTGALEGAAVTSSYGDPIVFLFLGGFLIALAMERWNLHKRIALNIISVVGTSTSRIVLGFMAATGFLSMWVSNTAAVMMMLPIGTAIIHQVSAVIKSERKDLAAEEAKFSKALIFSIGYAGTIGGLGTLIGTPPNIILAANIKKLYGVEVSFGGWMAFAVPVVVILLVAVWLYLTKVAHPIKMKELPGGKELILEEKRKLGKMSFEETMVLLVFGFAAFMWVTRTFLWDDKIPGIDDTMIAIFAASLLFLIPSLNKGGRVLDWSVSKDLPWGILLLFGGGLALATGFKETGLAEWIGGRLTVLDGFNFVVIVIISTALVLFLTEITSNTATATMILPVLASLALALNVHPYALMVPAAMAANCAFMLPVGTPPNAIIFASGKLKISEMVRTGFVINIFTLILIVGAVFYILPHLWGVDLTVFPDNLKSN”, the protein production result was “failed”.

As to “MKSVFHLWRSHMRHLNDMALFVEVARARSFRKAAEALGMPNSTLSRRVSELEKAIGLRLLHRTTRKIELTEAGQLYYERSKRIVDEARLAHEQLGAMLNQPSGVLRVSLPVNLATFYLTPIIGEFARHYPGITFEFDLTPRRVDLVAEPFDVAIRIGKLEDSGLITRLIGRHSRHLYASPGYIEASGEPATPAELAEHECIGMLRSPIWSLHQGINKVDVAVRGRFTLNSVGMIRALAVNHQGIALLPEKIVAEDVAFGRLRRILPEWQGSAVSIFAVTETRLIPAKTQRFIEFLSSRLMEA”, the protein production result is given as “failed”.

In the case of “MKSVIFTEEKNLQRQNPLQKSEQQRRNFEMPSPPTTTSLSVTQTINGSHSFTIKGYSLAKGIGIGKHIASDTFTVGGYQWAIYFYPDGKNPEDNSAYVSVFIALASDGTDVRALFELSLLDQSGKGKHKVHSHFDRALESGPYTLKYRGSMWGYKRFFRRLMLETSDFLKDDCLKINCTVGVVVSEIDCPRLHSIHVPASDIGSHFGMLLENEDGSDITFNVSGEKFRAHRLVLAARSPVFESEFLDVTGEEDRDIEVTDMEPKVFKALLHYIYKDALIEDAESSSSSGSSVGPSASDTLAAKLLGAADKYKLPRLSLMCESVLCKDISVDSVANILALADRYNASALKSVCLKFAAENLIAVMRSDGFDYLREHCPSLQSELLKTVAGCEEELSGGGGKTRSVWGQFSDGGAETNGRQAQTWGDINGGAERSQSVWVEVVNANGSGRNNNDNNNSDDPMAELED”, the protein production entry was “failed”. In the case of “MKSWPRPCSWACANPETKGRAYRTMSSSPTISPASDTFAAMTDDHRLAEFIREQASATRVVIQARKRLSGGAIQENWLLDLLIEGGPWAGVRRWVLRSDALSALPASLDREQEFAVLQVVYQAGVKVPRPLWLCRDVRVHGRVFFLMEYVPGSAAGRALSTGAGPQGRAQLATQLGANLARLHQVRPPCATLCFLSVPDSSPALATIDAYRRYLDTLADAYPVLEWGLRWCELHAPRSSTLCLLHRDYRTGNYLASEEGLEAVLDWEFTGWGDPCEDLGWFTARCWRFTRPDLEAGGIGQLEDFLRGYHEVSSLCIERSRLHYWQVMATLRWAVIALQQGQRHLSGEEPSLELALTARLLPELELDILHMTGAEAP”, the protein production result is listed as “failed”. As to “MKSWQIELLYDGECPLCLREVNFLRSKDQGRGLVNFVDIAQPDYNPLDHGGVSFEDAMARIHGVKADGSVVKNVAVFREVYEILGIGWLYAPTRWPIIGPLVDRIYDFWADLRLSWTGRSSLAEILAQREKGMCATDGCALPVTSGVEGKP”, the protein production entry is recorded as “failed”. Regarding “MKSYTKHTHTNRLASESSPYLLQHAHNPVEWFPWGEEALQKAKAEDKPILVSIGYSACHWCHVMEHECFEKEEVAAVMNDLFINIKIDREERPDLDQIYMDAVSAMGLRGGWPLNVFLTPDAKPFYGGTYFPQDHWLNLLGQISNAYLNHREDILKSAESFTESLNQSDVF”, the protein production entry is reported as “not failed”. With “MKTDWSHYLSVEMESTISNELSILCGAEVAFLGYSCSGKPYTFGSPSFQAVAERFLNREASSSLQRSVMNAHQQAKIQELCKVYNRMVEEAKTEEAKVKKAAALAETMPVDEDAWWKVDPKEVEDHEEAKKIMEKCEGLYEKLCNEAAARIQRGDAENNNK”, the protein production entry is given as “failed”.
